Test results from patent publication US20210130452A1 (Merck KGaA, published 2021).
Changes are numbered by the printed parent chain. Names and notes keep the numbering of the source.

T1: human IL-17F (human, UniProt Q96PD4 31-163)
T1 construct: made in Hek293 cells (GenBank AF384857); also called hIL-17F; hIL17F
T1 sequence: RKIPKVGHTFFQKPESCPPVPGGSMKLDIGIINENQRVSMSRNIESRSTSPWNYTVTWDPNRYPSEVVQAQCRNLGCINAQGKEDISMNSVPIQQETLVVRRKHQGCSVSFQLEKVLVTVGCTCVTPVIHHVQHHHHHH

T2: human IL-17F (human, UniProt Q96PD4 31-163, biotinylated with Sulfo-NHS-LC-Biotin in the AlphaScreen assays only)
T2 construct: also called hIL-17F; recombinant human IL-17F
T2 sequence: T1 sequence

B1: 17C01 (VHH)
VHH: EVQLVESGGRLVQAGGSLRLPCAASGRTFTSYPMGWFRQAPGKEREFVAAISMSGDDAAYADFVRGRFTISRDDARNTVYLHMTSLKPEDTAVYYCAARTSYDGTYDYIDDYSYWGQGTQVTVSS
notes: Class 4 Nanobody (cross-reactive: anti-IL-17A, IL-17F and IL-17A/F); not shown: c-myc, His6 tag
B2: 18B05 (VHH)
VHH: EVQLVKSGGGLVQPGGSLRLSCAASGGTFSLFAMGWFREAPGKEREFVAAIRWSDGSSYYADSVKGRFTISRDNAKNAVHLQSNSLKSEDTAVYYCYADVQGGLHRYWGQGTQVTVSS
notes: as for B1
B3: 03E05 (VHH)
VHH: EVQLVESGGGLVQAGGSLRLSCAASGVTFDDYSIGWFRQAPGKEREGVSCISSSDGIPYYSDFVKGRFTTSIDNAKNTVYLQMNSLKPEDTAVYYCAAGFGRLCAEFDSWGQGTQVTVSS
notes: Class 1 Nanobody (anti-IL-17A); not shown: c-myc, His6 tag
B4: 02E03 (VHH)
VHH: EVQLVESGGGLVQPGGSLRLSCAASGFTFSSYAMSWARQAPGEGLEWVSDINSGGTRTTYADSVKGRFTISRDNAKNTLYLQMNSLKPEDTAVYVCAKLSVFRSQLGGKYYGGDYENRGQGTQVTVSS
notes: as for B3
B5: 01D02 (VHH)
VHH: EVQLVESGGGLVQAGGSLRLSCAASGLSFSSYALGWFRQAPGKERDFVAAINWSGDNTHYADSVKGRFTISRDNAKNTVSLQMNSLKPEDTAVYYCAAQLGYESGYSLTYDYDYWGQGTQVTVSS
notes: as for B3
B6: IL17MS3018 (VHH)
VHH: EVQLVESGGGLVQPGGSLRLSCAASGRTYDAMGWLRQAPGKEREFVAAISGSGDDTYYADSVKGRFTISKDNSGITMYLQMNSLRPEDTAVYYCATRRGLYYVWDSNDYENWGQGTLVTVSS
notes: basic variant of IL17MS13E02; Kabat numbering; also called IL17MS3018 basic
B7: IL17MS3037 (VHH)
VHH: B6 VHH with P14A, S73A, R85K, S106A, L117Q
notes: variant of IL17MS13E02; Kabat numbering
B8: IL17MS3020 (VHH)
VHH: B6 VHH with K70R
notes: as for B7
B9: IL17MS3034 (VHH)
VHH: B6 VHH with P14A, M32L, S73A, R85K, L117Q
notes: as for B7
B10: IL17MS3036 (VHH)
VHH: B6 VHH with P14A, S73A, R85K, S106T, L117Q
notes: as for B7
B11: IL17MS3021 (VHH)
VHH: B6 VHH with G74K
notes: as for B7
B12: IL17MS3019 (VHH)
VHH: B6 VHH with L35F
notes: as for B7
B13: IL17MS3035 (VHH)
VHH: B6 VHH with P14A, S73A, M77L, R85K, L117Q
notes: as for B7
B14: IL17MS3022 (VHH)
VHH: B6 VHH with I75N
notes: as for B7
B15: IL17MS3032 (VHH)
VHH: B6 VHH with K70R, G74K, I75N
notes: as for B7
B16: IL17MS3027 (VHH)
VHH: B6 VHH with K70R, I75N
notes: as for B7
B17: IL17MS3015 (VHH, name in Kabat numbering)
VHH: EVQLVESGGGLVQPGGSLRLSCTASGTIVNIHVMGWYRQAPGKQRELVALIFSGGSADYADSVKGRFTISRDNSKNTVYLQMNSLRPEDTAVYYCAAEIGYYSGGTYYSSEAHWGQGTLVTVSS
notes: basic + Q18L, A84P; Kabat positions
B18: IL17MS3016 (VHH, name in Kabat numbering)
VHH: B17 VHH with L18Q, T23A
notes: basic + T23A, A84P; Kabat positions

Each binder was assayed against T3, human IL-17A (human, UniProt Q16552 24-155, biotinylated with Sulfo-NHS-LC-Biotin in the AlphaScreen assays only) (assay: cell-based or functional assay).
T3 sequence (Q16552 other isoform, or with tags, fused parts or gaps): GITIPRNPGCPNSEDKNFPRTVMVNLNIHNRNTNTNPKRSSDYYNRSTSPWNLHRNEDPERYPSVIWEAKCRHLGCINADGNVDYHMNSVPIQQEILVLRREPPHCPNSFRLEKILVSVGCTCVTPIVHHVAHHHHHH

IL-17A-induced IL-6 production in HT-1080 cells, Emax | IL-17A-induced IL-6 production in HT-1080 cells, IC50 | Binder
105% | 15100 pM | B1
104% | 20600 pM | B2
100% | 4000 pM | B3
99.3% | 16400 pM | B4
101% | 4800 pM | B5

These binders were tested against T4, human IL-17A/F heterodimer (human, UniProt Q16552 24-155; Q96PD4 31-163, limits assumed, biotinylated with Sulfo-NHS-LC-Biotin in the AlphaScreen assays only) (assay: cell-based or functional assay).
Target sequence in this assay (Q16552 24-155 limits assumed, chain 1 of 2, one chain of several): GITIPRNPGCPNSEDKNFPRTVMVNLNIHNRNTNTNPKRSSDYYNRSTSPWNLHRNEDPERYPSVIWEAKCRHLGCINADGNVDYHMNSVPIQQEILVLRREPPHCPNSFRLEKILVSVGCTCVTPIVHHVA

IL-17A/F-induced IL-6 production in HT-1080 cells, Emax | IL-17A/F-induced IL-6 production in HT-1080 cells, IC50 | Binder
107% | 41800 pM | B1
118% | 37100 pM | B2

Each binder was assayed against T5, human IL-17A (human, UniProt Q16552 24-155) (assay: SPR (Biacore) off-rate).
T5 construct: secreted form made in Hek293 cells (GenBank U32659); also called hIL-17A; hIL17A
T5 sequence (Q16552 other isoform, or with tags, fused parts or gaps): as the sequence (Q16552 other isoform, or with tags, fused parts or gaps) above

koff | Binder
9.26e-05 s⁻¹ | B6
0.000116 s⁻¹ | B7
2.84e-05 s⁻¹ | B8
0.000116 s⁻¹ | B9
0.000132 s⁻¹ | B10
0.000216 s⁻¹ | B11
0.000745 s⁻¹ | B12
7.59e-05 s⁻¹ | B13
6.41e-05 s⁻¹ | B14

These binders were tested against T1, human IL-17F (assay: SPR (Biacore) off-rate).

koff | Binder
0.00267 s⁻¹ | B6
0.00367 s⁻¹ | B7
0.00147 s⁻¹ | B8
0.00083 s⁻¹ | B15
0.00596 s⁻¹ | B9
0.0044 s⁻¹ | B10
0.00432 s⁻¹ | B11
0.0013 s⁻¹ | B16
0.0349 s⁻¹ | B12
0.00431 s⁻¹ | B13
0.0024 s⁻¹ | B14

Each binder was assayed against T6, human IL-17A/F heterodimer (human, UniProt Q16552 24-155; Q96PD4 31-163, limits assumed) (assay: SPR (Biacore) off-rate).
T6 construct: bought, made in E. coli (R&D Systems 5194-IL/CF); also called hIL-17A/F; hIL17A/F

koff | Binder
1.38e-05 s⁻¹ | B6
4.67e-05 s⁻¹ | B7
< 1e-06 s⁻¹ | B8
4.02e-05 s⁻¹ | B9
4.31e-05 s⁻¹ | B10
6.43e-05 s⁻¹ | B11
0.00031 s⁻¹ | B12
3.65e-05 s⁻¹ | B13
9.89e-06 s⁻¹ | B14

Each binder was assayed against T7, human IL-17A (human, UniProt Q16552 24-155) (assay: AlphaScreen IL-17A-IL-17RA, average).
T7 construct: secreted form (GenBank U32659) expressed in Hek293 with C-terminal 6-His; also called hIL-17A; IL-17A-6HIS
T7 sequence (Q16552 other isoform, or with tags, fused parts or gaps): as above

IC50 | Binder
171 pM | B17
177 pM | B18

What follows are binders tested against T5, human IL-17A (assay: AlphaScreen hIL-17A-IL-17RA; vs IL17MS13E02).

IC50 fold difference vs WT | Binder
1.13 fold | B6
1.61 fold | B7
1.24 fold | B8
1.42 fold | B15
1.68 fold | B9
2.06 fold | B10
2.75 fold | B11
1.23 fold | B16
3.72 fold | B12
2 fold | B13
1.17 fold | B14

These binders were tested against T1, human IL-17F (assay: AlphaScreen hIL-17F-IL-17RC; vs IL17MS13E02).

IC50 fold difference vs WT | Binder
0.8 fold | B6
1 fold | B7
1.3 fold | B8
0.5 fold | B15
2.7 fold | B9
2.2 fold | B10
0.9 fold | B11
0.6 fold | B16
4.6 fold | B12
1.22 fold | B13
0.9 fold | B14

These binders were tested against T3, human IL-17A (assay: AlphaScreen competition, hIL-17A - IL-17RA-Fc;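 note: receptor Fc-fusion plus Acceptor and streptavidin Donor beads incubated with the mixture for 1 h at room temperature before reading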).
Method: (§1) To this mixture, the IL-17RA or IL-17RC Fc-fusions, Acceptor beads and the streptavidin Donor beads were added and further incubated for 1 hour at RT.

IC50 | Binder
66 pM | B1
173 pM | B2
58 pM | B3
256 pM | B4
130 pM | B5

These binders were tested against T3, human IL-17A (assay: AlphaScreen competition, hIL-17A - IL-17RC-Fc;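 note: Read-out after 1 h at room temperature with the receptor Fc-fusion, Acceptor beads and streptavidin-coated Donor beads present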).
Method: as §1

IC50 | Binder
169 pM | B1
408 pM | B2
380 pM | B3
778 pM | B4
363 pM | B5

Each binder was assayed against T2, human IL-17F (assay: AlphaScreen competition, hIL-17F - IL-17RA-Fc).
Method: as §1

IC50 | Binder
296 pM | B1
36600 pM | B2

These binders were tested against T2, human IL-17F (assay: AlphaScreen competition, hIL-17F - IL-17RC-Fc).
Method: as §1

IC50 | Binder
168 pM | B1
13300 pM | B2

The binders below were run against T3, human IL-17A (assay: SPR Biacore, hIL-17A on chip; purified protein).

koff | Binder
0.00029 s⁻¹ | B1
0.00022 s⁻¹ | B2

Each binder was assayed against T2, human IL-17F (assay: SPR Biacore, hIL-17F on chip; purified protein).
Method: (§2) Off-rates of the periplasmic extracts containing anti-IL-17 Nanobodies were measured by Surface Plasmon Resonance (SPR) using a Biacore T100 instrument. […] Periplasmic extracts containing IL-17 neutralizing Nanobodies were injected for 2 minutes at a flow rate of 45 μl/min to allow binding to chip-bound antigen. Next, binding buffer without periplasmic extracts was sent over the chip at the same flow rate to allow spontaneous dissociation of bound Nanobody. From the sensorgrams obtained for the different periplasmic extracts koff-values (k₄) were calculated.

koff | Binder
0.056 s⁻¹ | B1
0.14 s⁻¹ | B2

The binders below were run against T4, human IL-17A/F heterodimer (assay: AlphaScreen competition, hIL-17A/F - IL-17RA-Fc).
Method: as §1

IC50 | Binder
264 pM | B1
231 pM | B2
> 250000 pM | B3
71700 pM | B5

Each binder was assayed against T4, human IL-17A/F heterodimer (assay: AlphaScreen competition, hIL-17A/F - IL-17RC-Fc).
Method: as §1

IC50 | Binder
801 pM | B1
87 pM | B2
> 250000 pM | B4
94600 pM | B5

Each binder was assayed against T4, human IL-17A/F heterodimer (assay: SPR Biacore, hIL-17A/F on chip; purified protein).
Target sequence in this assay (Q16552 24-155 limits assumed, chain 1 of 2, one chain of several): as the sequence (Q16552 24-155 limits assumed, chain 1 of 2, one chain of several) above

koff | Binder
0.00075 s⁻¹ | B1
0.00012 s⁻¹ | B2

What follows are binders tested against T3, human IL-17A (assay: SPR Biacore, hIL-17A on chip; periplasmic extract (*)).

koff | Binder
0.0001 s⁻¹ | B3
0.0009 s⁻¹ | B4
0.00044 s⁻¹ | B5

The binders below were run against T2, human IL-17F (assay: SPR Biacore, hIL-17F on chip; periplasmic extract (*); NB = no binding).
Method: as §2

binding result | Binder
no binding | B3
no binding | B4
no binding | B5
